Measurements as given in patent publication US20210155689A1 (SHANGHAI PHARMAEXPLORER, published 2021).

Columns and labels:
[1] = molecular target: human LAG-3 on cells (HEK293-hLAG-3 stable cell line) (human) (UniProt P18627); experiment: FACS, HEK293-hLAG-3, antibody 200.000 nM
[2] = molecular target: human LAG-3 on cells (HEK293-hLAG-3 stable cell line) (human) (UniProt P18627); experiment: FACS, HEK293-hLAG-3, antibody 0 nM
[3] = molecular target: human LAG-3 on cells (HEK293-hLAG-3 stable cell line) (human) (UniProt P18627); experiment: FACS, HEK293-hLAG-3, antibody 8 nM
[4] = molecular target: LAG-3-hFc protein (human LAG-3 extracellular region with hFc tag) (human) (UniProt P18627); experiment: FACS, inhibition of LAG-3-hFc binding to MHC II on Raji cells, antibody 2.469 nM
[5] = molecular target: monkey LAG-3 on cells (HEK293-cLAG-3 stable cell line) (monkey); experiment: FACS, HEK293-cLAG-3, antibody 1.600 nM
Sequence of monkey LAG-3 on cells (HEK293-cLAG-3 stable cell line) (monkey) (P18627 other isoform, or with tags, fused parts or gaps limits assumed): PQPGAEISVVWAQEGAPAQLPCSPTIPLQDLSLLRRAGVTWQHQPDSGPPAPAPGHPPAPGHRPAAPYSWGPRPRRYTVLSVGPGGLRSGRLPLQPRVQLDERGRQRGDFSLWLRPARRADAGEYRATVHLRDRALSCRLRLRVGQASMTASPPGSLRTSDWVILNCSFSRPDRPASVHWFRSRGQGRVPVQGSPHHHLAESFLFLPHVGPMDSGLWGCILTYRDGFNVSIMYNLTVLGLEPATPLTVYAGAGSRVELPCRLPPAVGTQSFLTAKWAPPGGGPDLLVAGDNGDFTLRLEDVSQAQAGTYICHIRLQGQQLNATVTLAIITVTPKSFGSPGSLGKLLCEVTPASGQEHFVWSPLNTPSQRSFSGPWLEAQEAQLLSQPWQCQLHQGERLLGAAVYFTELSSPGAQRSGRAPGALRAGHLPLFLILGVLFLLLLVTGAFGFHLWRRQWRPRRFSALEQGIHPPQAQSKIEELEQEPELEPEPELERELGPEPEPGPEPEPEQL

[6] = molecular target: LAG-3-hFc protein (human LAG-3 extracellular region with hFc tag) (human) (UniProt P18627); experiment: FACS, inhibition of LAG-3-hFc binding to MHC II on Raji cells, antibody 200.000 nM
[7] = molecular target: monkey LAG-3 on cells (HEK293-cLAG-3 stable cell line) (monkey); experiment: FACS, HEK293-cLAG-3, antibody 0.000 nM
[8] = molecular target: human LAG-3 on cells (HEK293-hLAG-3 stable cell line) (human) (UniProt P18627); experiment: FACS, HEK293-hLAG-3, antibody 0.064 nM
[9] = molecular target: LAG-3-hFc protein (human LAG-3 extracellular region with hFc tag) (human) (UniProt P18627); experiment: ELISA, inhibition of LSECtin-His binding to coated LAG-3-hFc, antibody 8.000 nM, replicate 1
[10] = molecular target: human LAG-3 on cells (HEK293-hLAG-3 stable cell line) (human) (UniProt P18627); experiment: FACS, HEK293-hLAG-3, antibody 1.600 nM
[11] = molecular target: LAG-3-hFc protein (human LAG-3 extracellular region with hFc tag) (human) (UniProt P18627); experiment: ELISA, inhibition of LSECtin-His binding to coated LAG-3-hFc, antibody 0.013 nM, replicate 1
[12] = molecular target: monkey LAG-3 on cells (HEK293-cLAG-3 stable cell line) (monkey); experiment: FACS, HEK293-cLAG-3, antibody 200.000 nM
[13] = molecular target: LAG-3-hFc protein (human LAG-3 extracellular region with hFc tag) (human) (UniProt P18627); experiment: FACS, inhibition of LAG-3-hFc binding to MHC II on Raji cells, antibody 66.667 nM
[14] = molecular target: monkey LAG-3 on cells (HEK293-cLAG-3 stable cell line) (monkey); experiment: FACS, HEK293-cLAG-3, antibody 8.000 nM
[15] = molecular target: LAG-3-hFc protein (human LAG-3 extracellular region with hFc tag) (human) (UniProt P18627); experiment: ELISA, inhibition of LSECtin-His binding to coated LAG-3-hFc, antibody 40.000 nM, replicate 1
[16] = molecular target: LAG-3-hFc protein (human LAG-3 extracellular region with hFc tag) (human) (UniProt P18627); experiment: ELISA, inhibition of LSECtin-His binding to coated LAG-3-hFc, antibody 8.000 nM, replicate 2
[17] = molecular target: human LAG-3 on cells (HEK293-hLAG-3 stable cell line) (human) (UniProt P18627); experiment: FACS, HEK293-hLAG-3, antibody 40.000 nM
[18] = molecular target: LAG-3-hFc protein (human LAG-3 extracellular region with hFc tag) (human) (UniProt P18627); experiment: ELISA, inhibition of LSECtin-His binding to coated LAG-3-hFc, antibody 0.320 nM, replicate 1
[19] = molecular target: LAG-3-hFc protein (human LAG-3 extracellular region with hFc tag) (human) (UniProt P18627); experiment: ELISA, inhibition of LSECtin-His binding to coated LAG-3-hFc, antibody 0.000 nM, replicate 2
[20] = molecular target: monkey LAG-3 on cells (HEK293-cLAG-3 stable cell line) (monkey); experiment: FACS, HEK293-cLAG-3, antibody 0.013 nM
[21] = molecular target: T1, human LAG-3 on cells (HEK293-hLAG-3 stable cell line) (human, UniProt P18627 23-525); experiment: FACS, HEK293-hLAG-3, antibody 0.32 nM
T1 sequence: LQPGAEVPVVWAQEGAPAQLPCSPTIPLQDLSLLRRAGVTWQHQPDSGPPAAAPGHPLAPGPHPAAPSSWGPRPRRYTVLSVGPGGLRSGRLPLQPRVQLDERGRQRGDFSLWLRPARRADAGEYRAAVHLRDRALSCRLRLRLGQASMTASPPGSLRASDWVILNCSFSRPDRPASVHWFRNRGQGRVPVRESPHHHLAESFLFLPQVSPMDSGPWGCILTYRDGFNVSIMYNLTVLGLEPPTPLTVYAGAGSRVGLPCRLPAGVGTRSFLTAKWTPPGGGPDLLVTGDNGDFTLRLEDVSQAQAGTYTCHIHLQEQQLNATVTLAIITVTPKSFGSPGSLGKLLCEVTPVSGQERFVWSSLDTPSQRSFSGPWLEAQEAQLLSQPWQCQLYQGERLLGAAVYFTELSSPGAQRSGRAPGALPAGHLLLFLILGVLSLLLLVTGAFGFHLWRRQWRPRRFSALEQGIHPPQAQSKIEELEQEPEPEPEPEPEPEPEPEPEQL
Description: (§1) A. The binding of antibodies to LAG-3 expressing cells was detected by Flow cytometry (FACS), wherein the method was according to that of Example 5.

[22] = molecular target: T1, human LAG-3 on cells (HEK293-hLAG-3 …); experiment: FACS, HEK293-hLAG-3, antibody 0 nM
[23] = molecular target: T1, human LAG-3 on cells (HEK293-hLAG-3 …); experiment: FACS, HEK293-hLAG-3, antibody 1.6 nM
[24] = molecular target: T1, human LAG-3 on cells (HEK293-hLAG-3 …); experiment: FACS, HEK293-hLAG-3, antibody 0.013 nM
Description: as §1

hIgG control (antibody)
Mean fluorescence intensity [1]: 3.1
Mean fluorescence intensity [2]: 4
Mean fluorescence intensity [3]: 4
Inhibition rate (%) [4]: 2.1%
Mean fluorescence intensity [5]: 3.25
Inhibition rate (%) [6]: 12.3%
Mean fluorescence intensity [7]: 2.86
Mean fluorescence intensity [8]: 4
Inhibition rate (%) [9]: -4.3%
Mean fluorescence intensity [10]: 2.7
Inhibition rate (%) [11]: -12.9%
Mean fluorescence intensity [12]: 2.9
Inhibition rate (%) [13]: 12.1%
Mean fluorescence intensity [14]: 3.16
Inhibition rate (%) [15]: 0.7%
Inhibition rate (%) [16]: -15.1%
Mean fluorescence intensity [17]: 3.1
Inhibition rate (%) [18]: -7.9%
Inhibition rate (%) [19]: -3.6%
Mean fluorescence intensity [20]: 2.87

B1: 405B8H3 mouse-human chimeric antibody (antibody, V domains shown)
VH: QVQLQQSGAELVRPGASVTLSCKASGYTFTDYEMHWVKQTPVHGLEWIGATDPETGNSAYNQKFKGKAIMTADKSSSTAYMELRSLTSEDSAVYYCISTGWNDWGQGTSLTVSS
VL: DIKMTQSPSSMYASLGERVTITCKASQDINSYLSWFQQKPGKSPKTLIYRADRLLDGVPSRFSGSGSGQDYSLTISSLEYGDMGIYYCLQYDEFPYTFGGGTKLEIK
notes: also called mAb103-405B8H3
Mean fluorescence intensity [21]: 54
Mean fluorescence intensity [22]: 4
Mean fluorescence intensity [23]: 139
Mean fluorescence intensity [24]: 9
